# According to patent US11407811B2, “Fusion protein, preparation method therefor and use thereof” (JIANGSU RONGTAI BIOTECH CO., LTD., priority 2017, dated 2022):
# Tests used:
# [1] = test system: gastric cancer cell MGC-803; assay: MTT assay, proliferation of gastric cancer cell MGC-803; assay type: cell-based
# Description: The MTT assay was used to detect the inhibitory effect of the integrin blocker fusion protein obtained in Example 1 on the proliferation of various tumor cells, including melanoma cell B16F10, gastric cancer cell MGC-803, lung cancer cell A549, liver cancer cell Hep-G2, breast cancer cell MDA-MB-231, colon cancer cell HCT-116, human glioma U87, and cervical cancer cell Hela.
# The tumor cells were cultured in a 5% CO2 incubator at 37° C. to a density of 90% or more, and collected by trypsinization. The cells were resuspended in the culture liquid and counted under a microscope. The cell concentration was adjusted to 3.0×10^4 cells/mL. The cell suspension was inoculated into a 96-well plate at 100 μL per well and cultured overnight in a 5% CO2 incubator at 37° C. […] After the cells were fully adhered, each dilution was added to a 96-well plate at 100 μL per well, respectively. […] 20 μL of 5 mg/mL MTT was added to each well of a 96-well plate, and incubation was continued for 4 hours. The medium was aspirated and 100 μL of DMSO per well were added to dissolve. The absorbance was measured at 570 nm with a microplate reader with a reference wavelength of 630 nm, and the proliferation inhibition (PI) was calculated. The formula is as follows: […]
# where Ntest is the OD value of the test group and Ncontrol is the OD value of the blank control group.
# The test was repeated 5 times independently. The results obtained from the test were calculated as mean±SD, and statistical t-test was performed. P<0.05 was considered as a significant difference, and P<0.01 was considered as an extremely significant difference.
# [2] = test system: iris neovascularization in rabbits; assay: Iris neovascularization in rabbits; assay type: in vivo, rabbit; settings: 128 μg, intravitreal injection once every 5 days for 2 weeks
# Description: The argon ion laser at 577 nm was used to occlude the major branch vein of rabbit retina, and a success venous occlusion was confirmed by fundus fluorescein angiography (FFA).
# 9 eyes successful in modeling were randomly divided into […]. They were labeled as a negative control group, and fusion protein I, protein II, protein III, protein IV and protein V treatment groups, respectively, which were respectively given physiological saline, 128 μg of fusion protein I, 128 μg of protein II, 128 μg of protein III, 128 μg of protein IV and 128 μg of protein V via intravitreal injection once every 5 days for 2 weeks. The observation was performed with an optical and electron microscope on the third week.
# [3] = test system: neovascularization in premature rat retinopathy model; assay: Neovascularization in premature rat retinopathy model (fluctuating oxygen-induced); assay type: in vivo
# Description: A fluctuating oxygen-induced animal model was adopted, and newborn rats (within 12 hours) spontaneously delivered on the same day were randomly divided into three groups: an oxygen model group, an oxygen treatment group, and a normal control group. The oxygen model was subdivided into three model subgroups, which were placed in a semi-closed oxygen chamber made of plexiglass together with the treatment group. The medical oxygen was introduced into the chamber, and the oxygen concentration was adjusted to 80%±2% with an oxygen meter. After 24 hours, nitrogen gas was introduced into the oxygen chamber, and then the oxygen concentration was rapidly adjusted to 10%±2% and maintained for 24 hours. […] The oxygen concentration was monitored 8 times a day, and the ambient temperature in the chamber was controlled to 23° C.±2° C. […]
# On day 14, after the rats was sacrificed with ether anesthesia, the eyeballs were removed and fixed in a 40 g/L paraformaldehyde solution for 24 hours. […] 10 sections were randomly selected from each eyeball to be stained with hematoxylin and eosin, and the nucleus of vascular endothelial cells that broke through the inner limiting membrane of the retina was counted (only the nucleus of vascular endothelial cells closely related to the inner limiting membrane were counted), and the average number of cells per section per eyeball was counted.
# [4] = test system: toe swelling in rat induced by carrageenan; assay: Acute inflammation of toe swelling in rat induced by carrageenan; assay type: in vivo; settings: for Swelling degree 1 h: 1 h after carrageenan; for Swelling degree 1 h / Swelling degree 3 h / Swelling degree 5 h / Swelling degree 7 h: rat foot; for Swelling degree 3 h: 3 h after carrageenan; for Swelling degree 5 h: 5 h after carrageenan; for Swelling degree 7 h: 7 h after carrageenan
# Description: 80 SD rats were randomly divided into 8 groups with 10 mice for each group. […] The drug was administered once by injection, and the model group was given an equal volume of physiological saline and fed normally. On the third day, 0.1 mL of 1% carrageenan was injected subcutaneously into the right hind toes of the rats to induce inflammation. The foot volume was measured at 1 h, 3 h, 5 h, and 7 h after inflammation. The swelling degree of the foot was calculated according to the following formula: the swelling degree of the foot (mL)=the volume of the foot after inflammation—the volume before inflammation. The number of milliliters of spilled liquid was recorded (method: the protruding point of the right joint was circled with a ballpoint pen and used as a measurement mark, and the right hind feet of the rat were sequentially placed in the volume measuring device, so that the hind limbs were exposed outside the cylinder, and the depth of the immersion was limited to the overlap of the circle and the liquid level. After the foot entered the liquid, the liquid level was raised, and the volume of the spilled liquid was the volume of the right hind foot of the rat, and the normal volume of the right hind foot of each rat is sequentially determined).
molecule,measurement,setting,value
Protein II: IgG2-Fc linked to antiangiogenesis polypeptide EDSM-Y via a flexible linker; SEQ ID NO: 17 (protein) ERKCCVECPPCPAPPVAGPSVFLFPPKPKDTLMISRTPEVTCVVVDVSHEDPEVQFNWYVDGVEVHNAKTKPREEQFNSTFRVVSVLTVVHQDWLNGKEYKCKVSNKGLPAPIEKTISKTKGQPREPQVYTLPPSREEMTKNQVSLTCLVKGFYPSDISVEWESNGQPENNYKTTPPMLDSDGSFFLYSKLTVDKSRWQQGNVFSCSVMHEALHNHYTQKSLSLSPGKGGGGSGGGGSGGGGSFQPVLHLVALNSPLSGGMRGIRGADFQCFQQARAVGLAGTFRAGGGGRGD,A570 nm/A630 nm,[1]; dose 1 μg/mL,1.1122 ± 0.0374
same,PI (%),[1]; dose 1 μg/mL,8.98%
same,A570 nm/A630 nm,[1]; dose 2 μg/mL,1.0149 ± 0.0253
same,PI (%),[1]; dose 2 μg/mL,16.94%
same,A570 nm/A630 nm,[1]; dose 4 μg/mL,0.8231 ± 0.0396
same,PI (%),[1]; dose 4 μg/mL,32.64%
same,A570 nm/A630 nm,[1]; dose 8 μg/mL,0.7231 ± 0.0215
same,PI (%),[1]; dose 8 μg/mL,40.82%
same,PI (%),"[1]; dose 8 μg/mL, listed as protein II",about 40%
same,A570 nm/A630 nm,[1]; dose 16 μg/mL,0.5216 ± 0.0192
same,PI (%),[1]; dose 16 μg/mL,57.31%
same,A570 nm/A630 nm,[1]; dose 32 μg/mL,0.4398 ± 0.0347
same,PI (%),[1]; dose 32 μg/mL,64.01%
same,A570 nm/A630 nm,[1]; dose 64 μg/mL,0.3378 ± 0.0286
same,PI (%),[1]; dose 64 μg/mL,72.35%
same,A570 nm/A630 nm,[1]; dose 128 μg/mL,0.2203 ± 0.0147
same,PI (%),[1]; dose 128 μg/mL,81.97%
same,A570 nm/A630 nm,[1]; dose 256 μg/mL,0.0987 ± 0.0159
same,PI (%),[1]; dose 256 μg/mL,91.92%
same,effect on iris neovascularization,[2],could inhibit neovascularization and regress the formed blood vessels
same,Nucleus number (nucleus count of vascular endothelial cells),"[3]; 100 μg intravitreal injection on day 7, counted on day 14, per section per eyeball",7.238 ± 1.194
same,nucleus counts of retinal vascular endothelial cells,"[3]; intravitreal injection, dose of 100, day 14, oxygen model group 27.452±2.110",7.238±1.194
same,Swelling degree 1 h,[4]; 8 mg/kg,0.29 ± 0.25 mL
same,Swelling degree 3 h,[4]; 8 mg/kg,0.34 ± 0.09 mL
same,Swelling degree 5 h,[4]; 8 mg/kg,0.36 ± 0.12 mL
same,Swelling degree 7 h,[4]; 8 mg/kg,0.41 ± 0.09 mL
same,Swelling degree 1 h,[4]; 32 mg/kg,0.27 ± 0.06 mL
same,Swelling degree 3 h,[4]; 32 mg/kg,0.41 ± 0.18 mL
same,Swelling degree 5 h,[4]; 32 mg/kg,0.37 ± 0.11 mL
same,Swelling degree 7 h,[4]; 32 mg/kg,0.33 ± 0.02 mL
same,Swelling degree 1 h,[4]; 128 mg/kg,0.21 ± 0.16 mL
same,Swelling degree 3 h,[4]; 128 mg/kg,0.32 ± 0.10 mL
same,Swelling degree 5 h,[4]; 128 mg/kg,0.41 ± 0.05 mL
same,Swelling degree 7 h,[4]; 128 mg/kg,0.36 ± 0.16 mL
same,inhibition of toe swelling induced by carrageenan,[4]; high doses,could significantly inhibit toe swelling
same,inhibition of toe swelling induced by carrageenan,[4]; low dose,not significant
